# Source: the supplement of paper PMC9170038
# Legend:
# MS2 coat protein [1] = test: apparent KD of MS2 coat protein, switch OFF state (with FMN for OFF switches, without FMN for ON switches); designed switch direction (-1 OFF switch, 1 ON switch): -1; higher = weaker reporter binding; conditions: FMN input: 0 or 200 uM; Eterna round: R93 (includes R88 designs)
# Method in brief: (§1)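 Titrations with SNAP-549-labelled MS2 coat protein ran in twofold steps from 0.7 or 1.5 nM to 3 µM, each step taking 0.8–1.5 h at the start and 10–20 min toward the end. The targets were designed RNA switches transcribed on-chip from Illumina sequencing clusters, held in 100 mM Tris-HCl pH 7.5, 80 mM KCl, 4 mM MgCl2, without or with constant ligand. Apparent KD was taken per design as the median of normalised cluster binding-curve fits.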
# MS2 coat protein [2] = test: apparent KD of MS2 coat protein, switch ON state; designed switch direction (-1 OFF switch, 1 ON switch): -1; higher = weaker reporter binding; conditions: FMN input: 0 or 200 uM; Eterna round: R93 (includes R88 designs)
# Method in brief: as §1
# MS2 coat protein [3] = test: apparent KD of MS2 coat protein; designed switch direction (-1 OFF switch, 1 ON switch): 1; higher = weaker reporter binding
# Method in brief: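 On Illumina chips, designed RNA switches with common flanks were made by stalled E. coli RNA polymerase. Titrations with SNAP-549-labelled MS2 coat protein, doubling from 0.7 or 1.5 nM to 3 µM, were done with no input, with 200 uM small-molecule ligand, or with an oligonucleotide input. Apparent KD is the median per design over clusters, from curve fits of normalised cluster fluorescence.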
# [4] = input ligand: microRNA oligo, concentration not stated
# [5] = Eterna round: R95, input ligand: FMN 200 uM
# [6] = Eterna round: R95, input ligand: microRNA oligo, concentration not stated
# [7] = Eterna round: R95, input ligand: none
Sequence,apparent KD of MS2 coat protein (MS2 coat protein [1]) [nM],apparent KD of MS2 coat protein (MS2 coat protein [2]) [nM],apparent KD of MS2 coat protein (MS2 coat protein [3]; [4]) [nM],further results
"AAACCACAUGAGGAUCACCCAUGUCAGGAUAUGCACGAAAAUAAAUAAAAAUAAAAGUGCAGAAGGGACUAAAA [66%, Wbt, 14]",45,31.9,,
GUCGUGUGAGGAUAUGGAAAGAAGAAGAAAAGGUAGAAAAACUAGAAGGCACAUGAGGAUCACCCAUGUAAGAA [JR_Exc004_Sub1709],22.3,24.1,,
AAGGGACAUGAGGAUCACCCAUGUAAGGAUAUGCUAUGGAAAAUAAAAAUAAAACAUAGCAGAAGGUACAAAAA [Denovo 15],135,124,,
AACAGUACAGGAUAUACAUGAGGAUCACCCAUGUGGAAAUUAAGUGGCGUACCACAAAGUAGAAGGGUACUGGA [Moding Maslow revisited (73)],100,29.5,,
AAAAAACAUGAGGAUCACCCAUGUGAGGAUAUCUGUAUCCAAAAGGAAGUGUAGGAUCAGAGAAGGCACUAGGA [Power strip],83.8,40.1,,
"AAGGGACAUGAGGAUCACCCAUGUCAGGAUAUGCUAUGGAAAAUAAAAAUAAAACAUAGCAGAAGGGACACCAA [64%, Meechl, 3]",40.3,25.9,,
"GCUCGAUGUGCUGUUUACAUGAGGAUCACCCAUGUAGAUGCGGAGGAUAUCUACGUGCUUUAUGUAGAGAAGGUCGUAUCGAGC [SameState NG3 #83] (Eterna round: R96, puzzle: Same State NG 3)",,,41.2,apparent KD of MS2 coat protein (MS2 coat protein [3]; input ligand: FMN 200 uM): 33.4 nM; apparent KD of MS2 coat protein (MS2 coat protein [3]; input ligand: none): 60.8 nM
"GGAAACUUGAGAGGAUAUGUAGAGGAUCACCCUACAGAAGGCUCAAAAGAGAGGAUAUGUAGAGGAUCACCCUACAGAAGGCUC [pwkr ssNG DX.11] (Eterna round: R96, puzzle: Same State NG 1)",,,23.7,apparent KD of MS2 coat protein (MS2 coat protein [3]; input ligand: FMN 200 uM): 24.9 nM; apparent KD of MS2 coat protein (MS2 coat protein [3]; input ligand: none): 33.1 nM
"AGCUAUUACGAAGGAUAUUCUGACAUGAGGAUCACCCAUGUCUUCAUGAUUUAUUGUGAUCACAUGAAGAAGGUCGUACUAACA [SameState NG2 #24] (Eterna round: R96, puzzle: Same State NG 2)",,,140,
AGAAAACAUGAGGAUCACCCAUGUAUAGUGAAUACAGGAUAUCACCGGCUGAAAAGCCGGUGAGAAGGGUGAUCGC [Atorenri] (puzzle: Same State 1),,,,apparent KD of MS2 coat protein (MS2 coat protein [3]; [5]): 149 nM; apparent KD of MS2 coat protein (MS2 coat protein [3]; [6]): 18.6 nM; apparent KD of MS2 coat protein (MS2 coat protein [3]; [7]): 7.7 nM
"GAGUAGUUGAAAGGAUAUUGAUUAUUGUAGGAUCAAGAAGGUUCUAACAUGAGGAUCACCCAUGUAGGACUAUUCCUGUGUAUC [Parity 89 - Jieux - Same State NG 1] (Eterna round: R96, puzzle: Same State NG 1)",,,8.63,
UAGCACUGUCGAGAGGAUAUGCGGUGAUGGACAUGAGGAUCACCCAUGUUAGCGACAGCAUCACGGCAGAAGGCUCUACUGCUGC [Soteed Omei mod 35] (puzzle: Same State 2),,,,apparent KD of MS2 coat protein (MS2 coat protein [3]; [5]): 11.7 nM; apparent KD of MS2 coat protein (MS2 coat protein [3]; [6]): 15.6 nM; apparent KD of MS2 coat protein (MS2 coat protein [3]; [7]): 13.7 nM
AAAGCACAUGAGGAUCACCCAUGUGGAAAUAACACAGGAUAUCUGGCCUAAGCUUAGGCGAGAGAAGGGUGACCUA [Beintivequ] (puzzle: Same State 1),,,,apparent KD of MS2 coat protein (MS2 coat protein [3]; [6]): 65.5 nM
"GUAGCAUACCGAGGAUAUUCAUAUAAUAAUAACAUGAGGAUCACCCAUGUAAGGCGAAAGCCUUGGGAGAAGGCGGAAUGCUAC [Xeonanis - 20 Mod60] (Eterna round: R96, puzzle: Same State NG 2)",,,30,apparent KD of MS2 coat protein (MS2 coat protein [3]; input ligand: FMN 200 uM): 11.6 nM; apparent KD of MS2 coat protein (MS2 coat protein [3]; input ligand: none): 63.6 nM
UAGAAACAUGAGGAUCACCCAUGUGUCAAAGACAUAGGAUAUCACAACUGGCGCCAGUCGUGAGAAGGGUGGUAAA [Usonesat] (puzzle: Same State 1),,,,apparent KD of MS2 coat protein (MS2 coat protein [3]; [5]): 229 nM; apparent KD of MS2 coat protein (MS2 coat protein [3]; [6]): 53.6 nM; apparent KD of MS2 coat protein (MS2 coat protein [3]; [7]): 84.7 nM
